Laboratory results taken from patent publication US20040170622A1, “Methods and compositions for modulating XBP-1 activity” (President and Fellows of Harvard College, priority 2002, published 2004).
Like-named read-outs stand apart in the source and are kept apart here.

System: XBP-1 and ATF6α
Experiment: UPRE (5×ATF6GL3) reporter in MEF cells with dominant negative XBP-1
Format: cell-based
Protocol: (A) The 5×ATF6GL3 reporter plasmid was cotransfected with either pCGNATF6α or XBP-u/s plasmids into MEF cells with or without the dominant negative XBP-1 expression plasmid. 100 ng DNA was used for each transfection except for pCDNA3.1, which was added to give 1 μg of DNA in total. Luciferase assays were performed as described in the legend to FIG. 18.(B) MEF and MEF-dn-XBP cells that stably express dominant negative XBP-1 protein were treated with 10 μg/ml Tm for the indicated time periods. Total RNAs were isolated and subjected to Northern blot analysis. The same blot was hybridized sequentially with BiP, CHOP, ERdj4, p58^ipk and ATF6α probes. Ethidium bromide staining of the gel before blotting is shown at the bottom as loading control.
To make 4×XBPGL3, two complementary oligonucleotides containing the XBP-1 binding site 5^f-CGCG(TGGATGACGTGTACA)4-3′ (SEQ ID NO: 12) and 5′-GATC(TGTACACGTCATCCA)4-3^f (SEQ ID NO: 13) were annealed and ligated to the—40-Luc plasmid (Lee et al. 2000. Biochem J. 350 Pt1:131-138) digested by Mlu I and Bgl II. The UPRE reporter was constructed by inserting an annealed oligonucleotide containing two UPRE motifs (Roy and Lee 1999 Nucleic Acids Res. 27:1437), 5′-cgcgtcaCCAATcggaggcctCCACGaccaCCAATcggaggcctCCACGac-3′, (SEQ ID NO: 14) to the 40-Luc plasmid between the Mlu I and Xho I sites (Lee et al. 2000. Biochem J. 350 Pt1:131-138). UPRE reporter (5×ATF6GL3), pCGNATF6 and pCGNAF6 (1-373) were previously described (Wang et al. 2000. J. Biol. Chem. 275:27013). The pCDNA3.1 ([…]) driven expression vectors for mouse XBP-1s and XBP-1u/s were described elsewhere (Iwakoshi et al. 2003. Nature Immunology 4:321). pCDNA-dn-XBP was constructed by removing the region downstream of the Eco RV site of XBP-1s cDNA in the pCDNA-XBP-1s plasmid. TREhyg-XBP-1s and TREhyg-dn-XBP were constructed by inserting the XBP-1s cDNA and DN-XBP, respectively, into TRE2 hyg (Clontech) between the Pvu II and Sal I sites. […]

B1: dn-XBP: dominant negative XBP-1 containing the N-terminal 188 aa, lacking transactivation domain, retaining leucine zipper (protein)
chain: MVVVAAAPSAATAAPKVLLLSGQPASGGRALPLMVPGPRAAGSEASGTPQARKRQRLTHLSPEEKALRRKLKNRVAAQTARDRKKARMSELEQQVVDLEEENHKLQLENQLLREKTHGLVVENQELRTRLGMDTLDPDEVPEVEAKGSGVRLVAGSAESAAGAGPVVTSPEHLPMDSDTVASSDSESD
  transactivation of the UPRE reporter by ATF6α / function of ATF6: inhibited the transactivation of the UPRE reporter by ATF6α
  transactivation of the UPRE reporter by XBP-1s: completely abolished transactivation of the UPRE reporter by XBP-1s
Listed as dn-XBP-1
  transactivation of the UPRE reporter by ATF6α / function of ATF6: potently inhibited the function of ATF-6 through heterodimerization
